Target: serum IgE from grass pollen allergic patients (171 sera)
Test: ELISA competition; sera preabsorbed with rPhl p 6, IgE binding to rPhl p 5

B1: recombinant Phl p 6 (protein)
chain: GKATTEEQKLIEDINASFRAAMATTANVPPADKYKTFEAAFTVSSKRNLADAVSKAPQLVPKLDEVYNAAYNAADHAAPEDKYEAFVLHFSEALHIIAGTPEVHAVKPGA
Question: B1 was tested. Which percent of Phl p 5-specific IgE preabsorbed did it give?
Answer: Its percent of Phl p 5-specific IgE preabsorbed is less than 20%.
